How the values were obtained:
[1] = biological target: Abeta(1-42) globulomer (human) (UniProt P05067); experiment: dot blot, antigen dilution series on nitrocellulose, antibody 0.2 µg/ml, densitometry
[2] = biological target: Abeta(1-42) monomer in 0.1% NaOH (human); experiment: as above
[3] = biological target: Abeta(1-40) monomer in 0.1% NaOH (human); experiment: as above
[4] = biological target: Abeta(1-40) monomer in 0.1% NH4OH (human); experiment: as above
[5] = biological target: Abeta(1-42) fibril preparation (human) (UniProt P05067); experiment: as above
Chain of Abeta(1-42) fibril preparation (human) (P05067 672-713 limits assumed): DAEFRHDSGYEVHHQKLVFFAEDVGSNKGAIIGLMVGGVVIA

[6] = biological target: Abeta(1-42) monomer in 0.1% NH4OH (human); experiment: as above
Chain of Abeta(1-42) monomer in 0.1% NH4OH (human) (peptide, as listed by the source): as the sequence (P05067 672-713 limits assumed) above

[7] = biological target: human platelet factor 4 (PF-4) in HPF4-spiked human plasma (human) (UniProt P02776); experiment: aligned sandwich-ELISA, antibody 10 to 10000 ng/ml captured by anti-mouse IgG (Fc), HPF4-spiked human plasma 1:10, OD450 against log concentration
Chain of human platelet factor 4 (PF-4) in HPF4-spiked human plasma (human) (P02776 32-101): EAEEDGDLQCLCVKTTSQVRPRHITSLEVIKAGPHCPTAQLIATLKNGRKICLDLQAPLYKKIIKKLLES

[8] = biological target: platelet factor 4 (PF-4) in Cynomolgus monkey plasma (Cynomolgus (Macaca fascicularis)); experiment: aligned sandwich-ELISA, antibody 10 to 10000 ng/ml captured by anti-mouse IgG (Fc), cynomolgus plasma 1:100, OD450 against log concentration
Chain of platelet factor 4 (PF-4) in Cynomolgus monkey plasma (Cynomolgus (Macaca fascicularis)) (chain, as listed by the source): as the sequence (P02776 32-101) above, with I64V counted along it

[9] = biological target: human platelet factor 4 (PF-4) in HPF4-spiked human plasma (human) (UniProt P02776); experiment: sandwich-ELISA with HPF4-spiked human plasma; reference antibody
[10] = biological target: platelet factor 4 (PF-4) in Cynomolgus monkey plasma (Cynomolgus (Macaca fascicularis)); experiment: sandwich-ELISA, antibody coated at 10 µg/ml, cynomolgus plasma dilutions 1:3.16 to 1:3160, OD450 against log dilution
[11] = biological target: human platelet factor 4 (PF-4) in HPF4-spiked human plasma (human) (UniProt P02776); experiment: aligned sandwich-ELISA with HPF4-spiked human plasma; reference antibody
[12] = biological target: human platelet factor 4 (PF-4) in HPF4-spiked human plasma (human) (UniProt P02776); experiment: aligned sandwich-ELISA: antibody dilution series captured by coated anti-mouse IgG (Fc), HPF4-spiked human plasma 1:10, bound PF-4 detected with rabbit anti-HPF4 and anti-rabbit-POD
[13] = biological target: human platelet factor 4 (PF-4) in HPF4-spiked human plasma (human) (UniProt P02776); experiment: sandwich-ELISA, antibody coated at 10 µg/ml, HPF4-spiked human plasma dilutions 1:3.16 to 1:3160, OD450 against log dilution
[14] = biological target: platelet factor 4 (PF-4) in Cynomolgus monkey plasma (Cynomolgus (Macaca fascicularis)); experiment: sandwich-ELISA with cynomolgus plasma; reference antibody
[15] = biological target: platelet factor 4 (PF-4) in Cynomolgus monkey plasma (Cynomolgus (Macaca fascicularis)); experiment: aligned sandwich-ELISA: antibody dilution series captured by coated anti-mouse IgG (Fc), cynomolgus plasma 1:100, bound PF-4 detected with rabbit anti-HPF4 and anti-rabbit-POD
[16] = biological target: platelet factor 4 (PF-4) in Cynomolgus monkey plasma (Cynomolgus (Macaca fascicularis)); experiment: aligned sandwich-ELISA with cynomolgus plasma; reference antibody

Chain of Abeta(1-40) monomer in 0.1% NH4OH (human) (peptide, as listed by the source): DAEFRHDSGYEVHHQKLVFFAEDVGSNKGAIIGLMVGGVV
Chain of Abeta(1-42) monomer in 0.1% NaOH (human) (peptide, as listed by the source): as the sequence (P05067 672-713 limits assumed) above
Chain of Abeta(1-42) globulomer (human) (P05067 672-713 limits assumed): as above

Row | Substance | dot blot ratio (recognition of Abeta(20-42) globulomer relative to this Abeta form) [1] | dot blot ratio (recognition of Abeta(20-42) globulomer relative to this Abeta form) [2] | dot blot ratio (recognition of Abeta(20-42) globulomer relative to this Abeta form) [3] | dot blot ratio (recognition of Abeta(20-42) globulomer relative to this Abeta form) [4] | dot blot ratio (recognition of Abeta(20-42) globulomer relative to this Abeta form) [5] | dot blot ratio (recognition of Abeta(20-42) globulomer relative to this Abeta form) [6] | Area Under Curve [7] | Area Under Curve [8] | Ratio HPF4/aAbeta antibody (AUC of anti-HPF4 over AUC of this antibody) [9] | Area Under Curve [10] | Ratio HPF4/aAbeta antibody (AUC of anti-HPF4 over AUC of this antibody) [11] | EC50 (read off the curve) [12] [µg/mL] | Area Under Curve [13] | Ratio HPF4/aAbeta antibody (AUC of anti-HPF4 over AUC of this antibody) [14] | EC50 (read off the curve) [15] [µg/mL] | Ratio HPF4/aAbeta antibody (AUC of anti-HPF4 over AUC of this antibody) [16]
1 | Anti-Abeta monoclonal antibody clone 6E10 (Covance cat. no. SIG-39320) | 0.09 | 10 | 20 | 3 | 29 | 10 |  |  |  |  |  |  |  |  |  | 
2 | Anti-HPF4 monoclonal antibody (Abcam Cat. No. ab49735) |  |  |  |  |  |  | 3.84 | 4.78 | 1 | 2.68 | 1 | 0.07 | 1.99 | 1 | 0.05 | 1
3 | Monoclonal antibody clone mIgG2a (negative control) |  |  |  |  |  |  | 0.033 | 0.015 |  | 0.005 |  |  | 0.006 |  |  | 
